Reference: patent publication US20080032921A1

How the values were obtained:
[1] = molecular target: HLA-DR DRB1*1501 (human); assay: competition with 125I-labeled reference peptide, purified HLA
[2] = molecular target: HLA-DR DRB1*0701 (human); assay: as above
[3] = molecular target: HLA-DR DRB1*0405 (human); assay: as above
[4] = molecular target: HLA-DR DRB4*0101 (human); assay: as above
[5] = molecular target: HLA-DR DRB1*0401 (human); assay: as above
[6] = molecular target: HLA-DR DRB1*0404 (human); assay: as above
[7] = molecular target: HLA-DR DRB5*0101 (human); assay: as above
[8] = molecular target: HLA-DR DRB1*0301 (human); assay: as above
[9] = molecular target: HLA-DR DRB1*1302 (human); assay: as above
[10] = molecular target: HLA-DR DRB1*1101 (human); assay: as above
[11] = molecular target: HLA-DR DRB1*0802 (human); assay: as above
[12] = molecular target: HLA-DR DRB1*0101 (human); assay: as above
[13] = molecular target: HLA-DR DRB1*1501 (human); assay: competition with 125I-labelled peptide for purified HLA-DR
[14] = molecular target: HLA-DR DRB1*0701 (human); assay: as above
[15] = molecular target: HLA-DR DRB1*0901 (human); assay: as above
[16] = molecular target: HLA-DR DRB1*0405 (human); assay: as above
[17] = molecular target: HLA-DR DRB4*0101 (human); assay: as above
[18] = molecular target: HLA-DR DRB1*0401 (human); assay: as above
[19] = molecular target: HLA-DR DRB1*0404 (human); assay: as above
[20] = molecular target: HLA-DR DRB5*0101 (human); assay: as above
[21] = molecular target: HLA-DR DRB1*0301 (human); assay: as above
[22] = molecular target: HLA-DR DRB1*1302 (human); assay: as above
[23] = molecular target: HLA-DR DRB1*1101 (human); assay: as above
[24] = molecular target: HLA-DR DRB1*0802 (human); assay: as above
[25] = molecular target: HLA-DR DRB1*0101 (human); assay: as above
[26] = molecular target: purified HLA DRB1*0405 (human); assay: competition with 125I-labelled reference peptide, purified HLA
[27] = molecular target: purified HLA DRB4*0101 (human); assay: as above
[28] = molecular target: purified HLA DRB1*0301 (human); assay: as above
[29] = molecular target: purified HLA DRB1*0401 (human); assay: as above
[30] = molecular target: purified HLA DRB1*1501 (human); assay: as above
[31] = molecular target: purified HLA DRB5*0101 (human); assay: as above
[32] = molecular target: purified HLA DRB1*1302 (human); assay: as above
[33] = molecular target: purified HLA DRB1*1101 (human); assay: as above
[34] = molecular target: purified HLA DRB1*0101 (human); assay: as above
[35] = molecular target: purified HLA DRB1*0404 (human); assay: as above
[36] = molecular target: purified HLA DRB1*0701 (human); assay: as above

**Q.** For RREVHIYYLEKANKI (modifications not checked) [Flu.PA.127], which IC50 [1] is on record?
**A.** The IC50 was 4.5 nM.

**Q.** What about the IC50 [2] of the same binder?
**A.** Its IC50 is 23 nM.

**Q.** What about the IC50 [3] of the same binder?
**A.** Its IC50 is 1490 nM.

**Q.** And the IC50 [4]?
**A.** The IC50 was 5 nM.

**Q.** And the IC50 [5]?
**A.** The IC50 was 63 nM.

**Q.** And the IC50 [6]?
**A.** The IC50 was 181 nM.

**Q.** And the IC50 [7]?
**A.** The IC50 was 25 nM.

**Q.** What about the IC50 [8] of the same binder?
**A.** Its IC50 is > 10000 nM.

**Q.** And the IC50 [9]?
**A.** The IC50 was 150 nM.

**Q.** What about the IC50 [10] of the same binder?
**A.** Its IC50 is 96 nM.

**Q.** What about the IC50 [11] of the same binder?
**A.** Its IC50 is 95 nM.

**Q.** And the IC50 [12]?
**A.** Its IC50 is 34 nM.

**Q.** What about the IC50 [13] of the same binder?
**A.** Its IC50 is 4.5 nM.

**Q.** What about the IC50 [14] of the same binder?
**A.** The IC50 was 23 nM.

**Q.** What about the IC50 [15] of the same binder?
**A.** The IC50 was 851 nM.

**Q.** And the IC50 [16]?
**A.** The IC50 was 1490 nM.

**Q.** What about the IC50 [17] of the same binder?
**A.** The IC50 was 5 nM.

**Q.** And the IC50 [18]?
**A.** Its IC50 is 63 nM.

**Q.** And the IC50 [19]?
**A.** The IC50 was 181 nM.

**Q.** And the IC50 [20]?
**A.** Its IC50 is 25 nM.

**Q.** What about the IC50 [21] of the same binder?
**A.** The IC50 was > 10000 nM.

**Q.** What about the IC50 [22] of the same binder?
**A.** Its IC50 is 150 nM.

**Q.** And the IC50 [23]?
**A.** Its IC50 is 96 nM.

**Q.** And the IC50 [24]?
**A.** The IC50 was 95 nM.

**Q.** And the IC50 [25]?
**A.** Its IC50 is 34 nM.

**Q.** With AKSMEYDAVATTHSW (modifications not checked) [Flu.PB1.655] as the binder, how does the IC50 [26] read?
**A.** Its IC50 is 626 nM.

**Q.** What about the IC50 [27] of the same binder?
**A.** Its IC50 is 6340 nM.

**Q.** And the IC50 [28]?
**A.** The IC50 was 909 nM.

**Q.** What about the IC50 [29] of the same binder?
**A.** The IC50 was 53 nM.

**Q.** And the IC50 [30]?
**A.** Its IC50 is 1990 nM.

**Q.** What about the IC50 [31] of the same binder?
**A.** Its IC50 is 3530 nM.

**Q.** What about the IC50 [32] of the same binder?
**A.** The IC50 was 2180 nM.

**Q.** And the IC50 [33]?
**A.** The IC50 was 6620 nM.

**Q.** And the IC50 [34]?
**A.** The IC50 was 202 nM.

**Q.** What about the IC50 [35] of the same binder?
**A.** Its IC50 is 646 nM.

**Q.** What about the IC50 [36] of the same binder?
**A.** Its IC50 is 292 nM.
